Target: Human CXCR7 (human) (UniProt P25106)
Test: competition FACS, 4 nM biotinylated SDF-1 on HEK-hCXCR7 cells

Human CXCR7 (human), sequence (P25106 whole entry): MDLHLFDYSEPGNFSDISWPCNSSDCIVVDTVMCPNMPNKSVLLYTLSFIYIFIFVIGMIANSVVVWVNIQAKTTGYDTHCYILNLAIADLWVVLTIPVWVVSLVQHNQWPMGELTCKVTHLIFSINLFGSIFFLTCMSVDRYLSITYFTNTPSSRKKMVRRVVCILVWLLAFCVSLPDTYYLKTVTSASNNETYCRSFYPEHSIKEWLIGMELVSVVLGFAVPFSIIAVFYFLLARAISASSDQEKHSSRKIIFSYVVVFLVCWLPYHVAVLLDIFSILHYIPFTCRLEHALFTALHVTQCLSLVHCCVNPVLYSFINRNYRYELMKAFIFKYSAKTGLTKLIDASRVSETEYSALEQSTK

% competition relative to unlabelled SDF-1: > 95%
Substance: Mab 8F11 (Biolegend) (antibody)

Reference: patent US20140227270A1
